We go through two sequences from patent US10400009B2, “β-sheet breaker peptide used for preventing and/or treating alzheimer's disease” (TIANJIN MEDICAL UNIVERSITY, priority 2014, dated 2019).

Ends that are not written are not given here.

The target of assay [1] is T1, Aβ (Homo sapiens, UniProt P05067). Particulars: from Chinese patent CN 101531703A; cited from earlier work.
The target of assay [2] is T2, Aβ1-42 (Homo sapiens, UniProt P05067).
T2 construct: purchased Sigma, Inc. (US)
Briefly: FT-IR spectrometry of Aβ1-42 secondary structure (β-sheet). In kind it is biochemical. Particulars: co-incubation with Aβ1-42 at 37° C. for 72 h. As for the experimental part:
1.3 the Inhibition Effect of HPYD on Aβ1-42 Aggregation was Observed by FT-IR Spectrometry.
22.15 μmol/L Aβ1-42 solution in PBS phosphate buffer was formulated in quadruplicate as described in the above 1.2 section. To two solutions, PBS phosphate buffer was added in equal volume respectively and incubated alone at 37° C. for 30 min (30 min, aging group) and 72 h (72 h, aging group). To the other two solutions, H102 (88.60 μmol/L) and HPYD (88.60 μmol/L) were added in equal volume respectively and co-incubated at 37° C. for 72 h. After incubation, each sample was vacuum lyophilized. Then, 3.5 μg of H102 and 3.7 μg of HPYD were respectively mixed with anhydrous potassium bromide (120-180 mg) thoroughly, and pressurized for 5 min by tablet machine to form potassium bromide tablet. The measurement and analysis were carried out by using Nicolet Magna 760 FT-IR instrument, with a resolution of 4 cm^−1 and a spectrum range of 3500-400 cm^−1. The amide I band spectrum at 1700-1600 cm^−1 was analyzed using Origin 8.0 software. The fitting range was expanded to 1750-1550 cm^−1 due to the complexity of the components in the samples and the effect of vibration peaks close to amide I band on the secondary structure.
In the above-mentioned studies, Aβ1-42 was used as negative control, and H102 was used as positive control.

The target in assay [3] is T2, Aβ1-42. Kind of assay: ThT fluorescence spectrophotometry of Aβ1-42 aggregation. Particulars: Aβ1-42 11.07 μmol/L, peptide 44.3 μmol/L, 37° C., 24 h, PBS pH 7.4; x ± S. Type of assay: biochemical. As for the experimental part:
1.2 the Inhibition Effect of HPYD on Aβ Aggregation was Analyzed by ThT Fluorescence Spectrophotometry.
The degree of Aβ aggregation may be reflected by ThT fluorescence intensity. Aβ1-42 lyophilized powder was formulated in 50 mmol/L PBS phosphate buffer (pH 7.4) to obtain a solution in a concentration of 22.15 μmol/L. The polypeptides H102 and HPYD were also formulated in 50 mmol/L PBS phosphate buffer (pH 7.4) to obtain a solution in a concentration of 88.60 μmol/L. In the experiment, Aβ1-42 was mixed with H102 or HPYD in 1:1 volume ratio to a final concentration of 11.07 μmol/L and 44.3 μmol/L, respectively. […] ThT fluorescence intensity was measured by using VARIAN PTC-Au00-01058 fluorescence spectrophotometer at the excitation wavelength of 453 nm and emission wavelength of 478-486 nm. […]
The fluorescence intensity from the aging group (in which Aβ1-42 lyophilized powder was formulated in 50 mmol/L PBS phosphate buffer (pH 7.4) to obtain a solution in a concentration of 11.07 μmol/L, and the obtained solution was incubated at 37° C. for 24 hours) from which baseline fluorescence intensity was subtracted would be taken as 100%, and the inhibitory rate of the drug on Aβ1-42 in each group was calculated. […]
Inhibitory rate=(the relative fluorescence intensity of 1-β sheet blocking peptide/the relative fluorescence intensity of Aβ1-42)×100%

Assay [4] has as its target T2, Aβ1-42. Kind of assay: Electron microscopy of Aβ1-42 fiber formation. Type of assay: biochemical. Particulars: for Aβ fibers observed by electron microscope: co-incubation with Aβ1-42 for 5 days at 37° C. As for the experimental part: 1.4 the Inhibition Effect of HPYD on Aβ Aggregation was Observed by Using Electron Microscope. Aβ1-42 solution in PBS phosphate buffer (11.07 μmol/L, 20 μl) was formulated as described in the above 1.2 section, and incubated alone at 37° C. for 5 days. Meanwhile, Aβ1-42 (22.15 μmol/L, 10 μl) was respectively co-incubated with […] or HPYD (88.61 μmol/L, 10 μl) under the same conditions for 5 days. 5 μl sample was taken from each group and dropped on the carbon support film on 300-mesh deionized copper grids, and then kept still at ambient temperature for 15 min. The samples were negatively stained in dark with 2% uranyl acetate for 2 min. After drying, the samples were observed using transmission electron microscope. In the above-mentioned studies, Aβ1-42 was used as negative control, and […] was used as positive control.

Assay [5] addresses T1, Aβ. Kind of assay: Immunohistochemical staining of Aβ in brains of APP/PS1 double transgenic mice. In kind it is in vivo. On the set-up: from tissue; host or cells: brain (cortex, hippocampus CA1) of APP/PS1 double transgenic mice. Particulars: nasal 33 mg/ml at 5 μl/d, 30 days, n = 7, x ± S. The protocol:
(§1) 1.1 Animals: Fourteen APP/PS1 double transgenic mice were randomized into model group and drug administration group. Seven C57BL/6J mice with the same age and genetic background were used in normal control group. These mice were all purchased from the Experimental Animal Research Center of Peking Union Medical College, Chinese Academy of Medical Sciences. By way of nasal administration, 33 mg/ml HPYD in physiological saline solutions were administered to the mice in drug administration group at a rate of 5 μl/d using drug delivery devices, and the same volume of physiological saline solutions were administered nasally to the mice in normal control group and model group. The detection was carried out 30 days after the administration.
(§2) 1.2 Drugs and reagents: Anti-Aβ1-42 antibody was purchased from Chemicon Inc. Anti-APP antibody, ready-to-use SABC Immunohistochemistry Staining Kit, DBA Color Development Kit and 0.1% polylysine were purchased from Wuhan Boster Biological Technology, Ltd. Other reagents have analytical purity.
(§3) 1.3 Immunohistochemical Staining: After Morris Water Maze was carried out in order to determine the learning ability of the experimental mice, the mice were anaesthetized by celiac injection with 0.1 kg/L chloral hydrate at a dose of 4 ml/kg. Rapid intubation was carried out via left ventricle. […]

Another assay concerns APP. Briefly: Immunohistochemical staining of APP in brains of APP/PS1 double transgenic mice. In kind it is in vivo. Particulars: nasal 33 mg/ml at 5 μl/d, 30 days, n = 7, x ± S. As for the experimental part: as §1, §2, §3
Assay [6] deals with APP/PS1 double transgenic mice. Briefly: Morris Water Maze place navigation test. In kind it is in vivo. Particulars: nasal 33 mg/ml at 5 μl/d, 30 days, n = 7. As for the experimental part: (§4) 1.1 Animals: Fourteen APP/PS1 double transgenic mice were randomized into model group and drug administration group. Seven C57BL/6J mice with the same age and genetic background were used in normal control group. By way of nasal administration, 33 mg/ml HPYD in physiological saline solutions were administered to the mice in drug administration group in a rate of 5 μl/d using drug delivery devices, and the same volume of physiological saline solutions were administered nasally to the mice in normal control group and model group. The detection was performed 30 days after the administration.
(§5) 1.2 Morris Water Maze test: (1) Place Navigation: A platform is placed in a circle within the third quadrant of water maze. Each mouse swims twice (90 s/time) during the same time periods of every day for 5 days. The time required for a mouse's finding and climbing onto the platform, i.e. escape latency, is recorded. If the mouse could not find the platform within 90 s, it is guided to the platform and kept for 20 s. In this case, the escape latency is recorded as 90 s. (2) Spatial Probe: The platform is removed at day 6, and during the same time period, a water entry point is optionally selected for putting a mouse into water. Each mouse swims once (90 s/time). The swim track of the mouse within 90 s, the numbers of leaping over the hidden platform, the original swimming angle after water entry, and so on are recorded for testing the memory ability of the mouse.
1.3 Data processing: The data obtained is expressed in mean±standard deviation (χ±5). Statistical analysis was performed using statistical software SPSS16.0. One-way ANOVA and pairwise comparison were employed. P<0.05 represents that the difference is statistically significant.

In assay [7] the test system is APP/PS1 double transgenic mice. Briefly: Morris Water Maze spatial probe test. In kind it is in vivo. Particulars: 30 days, n = 7. The protocol:
as §4
as §5, with “(2) Spatial Probe: The platform is removed at day 6, and during the same time period, a water entry point is optionally selected for putting a mouse into water. Each mouse swims once (90 s/time).” left out, “mouse. […]” for “mouse.”

Turning to HKQLPFFEED [H102, reference compound], in the assay with Aβ [1], the “inhibitory rate on Aβ aggregation” value is listed as 27.84%. In addition, the “transmittance in each wavenumber representing secondary structures, versus Aβ incubated alone for 72 h” value in the assay with Aβ1-42 [2] was “significantly higher transmittance”. For the same sequence, in the assay with Aβ1-42 [3], the “Inhibitory rate (%) on Aβ1-42 aggregation” value is 14.168 ± 0.038 %. In the assay with Aβ1-42 [4], the “Aβ fibers observed by electron microscope” value is given as “Aβ fibers were significantly decreased”.
On to HKQLPFYEED [HPYD], for which the “Aβ ratio of positive cells (%), Cortex” value with Aβ [5] is on record as 15.85 ± 2.77 %. The “Aβ ratio of positive cells (%), Hippocampus CA1 area” value in the assay with Aβ [5] is listed as 11.09 ± 2.47 %. Moreover, the “APP ratio of positive cells (%), Cortex” value in the assay with APP is given as 14.25 ± 3.25 %. In the assay with APP, the “APP ratio of positive cells (%), Hippocampus CA1 area” value was determined as 12.75 ± 1.83 %. The “daily mean escape latency” value in assay [6] (1 d) came to 88.127 ± 4.137 s; in assay [6] (2 d), 80.404 ± 15.646 s; in assay [6] (3 d), 67.740 ± 24.389 s; in assay [6] (4 d), 45.950 ± 19.211 s; in assay [6] (5 d), 24.974 ± 9.685 s. In addition, in the assay with Aβ1-42 [2], the “content of β-sheet (FT-IR, 1640-1620 cm^−1)” value is recorded as “lowest”. Also, the “transmittance in each wavenumber representing secondary structures, versus Aβ incubated alone for 72 h” value with Aβ1-42 [2] is given as “significantly higher transmittance”. Besides, the “Inhibitory rate (%) on Aβ1-42 aggregation” value in the assay with Aβ1-42 [3] turned out to be 27.013 ± 0.018 %. Further, in assay [7] (day 6, 90 s, nasal 33 mg/ml at 5 μl/d), the “numbers of leaping over the hidden platform (numbers)” value was 2.25 ± 1.258 numbers. For the same sequence, the “Orientation angles (degree)” value in assay [7] (day 6, nasal 33 mg/ml at 5 μl/d) is listed as 40.478 ± 26.533 degree. For the same sequence, in the assay with Aβ1-42 [4] (co-incubation with Aβ1-42 for 5 days), the “inhibition effect on Aβ aggregation by electron microscopy, compared with H102” value is on record as “stronger inhibition effect on Aβ aggregation than H102”. The “Aβ fibers observed by electron microscope” value in the assay with Aβ1-42 [4] was “significantly decreased and thinner”.
